# Reference: PMC9352680, “A comprehensive thermodynamic model for RNA binding by the Saccharomyces cerevisiae Pumilio protein PUF4”
# Where a chain is given by its changes, count along the chain named. Numbers in names are those of the source.
# T1: PUF4 RNA-binding domain (Saccharomyces cerevisiae, UniProt P25339 537-888)
# T1 sequence: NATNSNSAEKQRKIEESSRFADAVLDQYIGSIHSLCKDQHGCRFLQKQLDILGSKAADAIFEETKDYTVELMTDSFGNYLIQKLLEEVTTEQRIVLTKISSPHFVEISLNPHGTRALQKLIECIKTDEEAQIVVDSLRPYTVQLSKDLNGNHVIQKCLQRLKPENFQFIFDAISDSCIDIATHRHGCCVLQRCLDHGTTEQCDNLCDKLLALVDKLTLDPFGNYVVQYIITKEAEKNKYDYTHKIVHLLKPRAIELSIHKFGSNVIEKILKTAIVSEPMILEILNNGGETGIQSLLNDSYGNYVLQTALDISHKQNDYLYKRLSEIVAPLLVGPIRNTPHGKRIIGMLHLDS
# B1: Id_ii_S2_P3E.3_K3.2_C3.2_[C-2A]_H3.2_A3.1_F3.1_T3.2_[T9C]_[A10C] (ssRNA)
# RNA: UUUGAUUAAUAUGAUAUCGUUCUUUCUAUUAUAUAUACCUUCUUUCUCGAUAUCAUAUUAAUCUUU
# B2: Id_ii_S2_P3E.3_K3.2_C3.2_[T-1C]_H3.2_A3.1_F3.1_T3.2_[T9A] (ssRNA)
# RNA: B1 RNA with A28C, U29C, C38A, C39A
# B3: Id_ii_S2_P3E.3_K3.2_C3.2_[C-2A]_H3.2_A3.1_F3.1_T3.2_[T9A] (ssRNA)
# RNA: B1 RNA with C38A, C39A
# B4: Id_ii_S2_P3E.3_K3.2_C3.2_[T-1A]_H3.2_A3.1_F3.1_T3.2_[T9G]_[A10T] (ssRNA)
# RNA: B1 RNA with A28C, U29A, C38G, C39U
# B5: Id_ii_S2_P3E.3_K3.2_C3.2_[T-1C]_H3.2_A3.1_F3.1_T3.2_[T9C]_[A10C] (ssRNA)
# RNA: B1 RNA with A28C, U29C
# B6: Id_ii_S2_P3E.4_K3.3_C3.2_[C-2G]_H3.3_A3.1_F3.1_T3.2 (ssRNA)
# RNA: B1 RNA with A28G, U30A, A31C, U32A, A33C, C38U, C39A
# B7: Id_ii_S2_P3E.4_K3.3_C3.2_[C-2G]_H3.3_A3.1_F3.1_T3.2_[T9A]_[A10T] (ssRNA)
# RNA: B1 RNA with A28G, U30A, A31C, U32A, A33C, C38A, C39U
# B8: Id_ii_S2_P3E.4_K3.3_C3.2_[C-2G]_[T-1C]_H3.3_A3.1_F3.1_T3.2_[T9A]_[A10C] (ssRNA)
# RNA: B1 RNA with A28G, U29C, U30A, A31C, U32A, A33C, C38A
# B9: Id_ii_S2_P3E.3_K3.2_C3.2_[T-1A]_H3.2_A3.1_F3.1_T3.2_[T9A]_[A10G] (ssRNA)
# RNA: B1 RNA with A28C, U29A, C38A, C39G
# B10: Id_ii_S2_P3E.3_K3.2_C3.2_[T-1A]_H3.2_A3.1_F3.1_T3.2_[T9C]_[A10C] (ssRNA)
# RNA: B1 RNA with A28C, U29A
# B11: Id_ii_S2_P3E.3_K3.2_C3.2_[C-2A]_H3.2_A3.1_F3.1_T3.2_[T9A]_[A10T] (ssRNA)
# RNA: B1 RNA with C38A, C39U
# B12: Id_ii_S2_P3E.3_K3.2_C3.2_H3.2_A3.1_F3.1_T3.2_[A10G] (ssRNA)
# RNA: B1 RNA with A28C, C38U, C39G
# B13: Id_ii_S2_P3E.4_K3.3_C3.2_[C-2G]_H3.3_A3.1_F3.1_T3.2_[T9C]_[A10T] (ssRNA)
# RNA: B1 RNA with A28G, U30A, A31C, U32A, A33C, C39U
# B14: Id_ii_S2_P3E.3_K3.2_C3.2_[T-1C]_H3.2_A3.1_F3.1_T3.2_[T9G]_[A10T] (ssRNA)
# RNA: B1 RNA with A28C, U29C, C38G, C39U
# B15: Id_ii_S2_P3E.3_K3.2_C3.2_[T-1G]_H3.2_A3.1_F3.1_T3.2_[T9A]_[A10G] (ssRNA)
# RNA: B1 RNA with A28C, U29G, C38A, C39G
# B16: Id_ii_S2_P3E.3_K3.2_C3.2_H3.2_A3.1_F3.1_T3.2_[T9C] (ssRNA)
# RNA: B1 RNA with A28C, C39A
# B17: Id_ii_S2_P3E.3_K3.2_C3.2_[T-1C]_H3.2_A3.1_F3.1_T3.2_[T9A]_[A10G] (ssRNA)
# RNA: B1 RNA with A28C, U29C, C38A, C39G
# B18: Id_ii_S2_P3E.3_K3.2_C3.2_[T-1G]_H3.2_A3.1_F3.1_T3.2_[T9A] (ssRNA)
# RNA: B1 RNA with A28C, U29G, C38A, C39A
# B19: Id_ii_S2_P3E.3_K3.2_C3.2_H3.2_A3.1_F3.1_T3.2_[A10C] (ssRNA)
# RNA: B1 RNA with A28C, C38U
# B20: Id_ii_S2_P3E.3_K3.2_C3.2_H3.2_A3.1_F3.1_T3.2 (ssRNA)
# RNA: B1 RNA with A28C, C38U, C39A
# B21: Id_ii_S2_P3E.3_K3.2_C3.2_H3.2_A3.1_F3.1_T3.2_[T9A] (ssRNA)
# RNA: B1 RNA with A28C, C38A, C39A
# B22: Id_ii_S2_P3E.4_K3.3_C3.2_[C-2T]_[T-1C]_H3.3_A3.1_F3.1_T3.2_[T9C]_[A10C] (ssRNA)
# RNA: B1 RNA with A28U, U29C, U30A, A31C, U32A, A33C
# B23: Id_ii_S2_P3E.4_K3.3_C3.2_[C-2G]_H3.3_A3.1_F3.1_T3.2_[T9C]_[A10C] (ssRNA)
# RNA: B1 RNA with A28G, U30A, A31C, U32A, A33C
# B24: Id_ii_S2_P3E.4_K3.3_C3.2_[C-2G]_[T-1C]_H3.3_A3.1_F3.1_T3.2_[T9C] (ssRNA)
# RNA: B1 RNA with A28G, U29C, U30A, A31C, U32A, A33C, C39A
# B25: Id_ii_S2_P3E.3_K3.2_C3.2_[C-2A]_H3.2_A3.1_F3.1_T3.2_[T9C]_[A10T] (ssRNA)
# RNA: B1 RNA with C39U
# B26: Id_ii_S2_P3E.3_K3.2_C3.2_H3.2_A3.1_F3.1_T3.2_[A10T] (ssRNA)
# RNA: B1 RNA with A28C, C38U, C39U
# B27: Id_ii_S2_P3E.3_K3.2_C3.2_[T-1C]_H3.2_A3.1_F3.1_T3.2_[T9A]_[A10T] (ssRNA)
# RNA: B1 RNA with A28C, U29C, C38A, C39U
# B28: Id_ii_S2_P3E.3_K3.2_C3.2_H3.2_A3.1_F3.1_T3.2_[T9A]_[A10C] (ssRNA)
# RNA: B1 RNA with A28C, C38A
# B29: Id_ii_S2_P3E.3_K3.2_C3.2_H3.2_A3.1_F3.1_T3.2_[T9C]_[A10G] (ssRNA)
# RNA: B1 RNA with A28C, C39G
# B30: Id_ii_S2_P3E.3_K3.2_C3.2_[T-1G]_H3.2_A3.1_F3.1_T3.2_[T9G]_[A10C] (ssRNA)
# RNA: B1 RNA with A28C, U29G, C38G
# B31: Id_ii_S2_P3E.3_K3.2_C3.2_[T-1C]_H3.2_A3.1_F3.1_T3.2_[T9C] (ssRNA)
# RNA: B1 RNA with A28C, U29C, C39A
# B32: Id_ii_S2_P3E.3_K3.2_C3.2_[T-1A]_H3.2_A3.1_F3.1_T3.2_[T9C] (ssRNA)
# RNA: B1 RNA with A28C, U29A, C39A
# B33: Id_ii_S2_P3E.4_K3.3_C3.2_[C-2T]_[T-1C]_H3.3_A3.1_F3.1_T3.2_[T9A]_[A10G] (ssRNA)
# RNA: B1 RNA with A28U, U29C, U30A, A31C, U32A, A33C, C38A, C39G
# B34: Id_ii_S2_P3E.4_K3.3_C3.2_[C-2G]_[T-1C]_H3.3_A3.1_F3.1_T3.2_[T9A] (ssRNA)
# RNA: B1 RNA with A28G, U29C, U30A, A31C, U32A, A33C, C38A, C39A
# B35: Id_ii_S2_P3E.3_K3.2_C3.2_H3.2_A3.1_F3.1_T3.2_[T9A]_[A10T] (ssRNA)
# RNA: B1 RNA with A28C, C38A, C39U
# B36: Id_ii_S2_P3E.3_K3.2_C3.2_[T-1C]_H3.2_A3.1_F3.1_T3.2_[T9C]_[A10T] (ssRNA)
# RNA: B1 RNA with A28C, U29C, C39U
# B37: Id_ii_S2_P3E.3_K3.2_C3.2_[T-1G]_H3.2_A3.1_F3.1_T3.2_[T9C]_[A10C] (ssRNA)
# RNA: B1 RNA with A28C, U29G
# B38: Id_ii_S2_P3E.4_K3.3_C3.2_[C-2T]_[T-1C]_H3.3_A3.1_F3.1_T3.2_[T9C] (ssRNA)
# RNA: B1 RNA with A28U, U29C, U30A, A31C, U32A, A33C, C39A
# B39: Id_ii_S2_P3E.4_K3.3_C3.2_[C-2G]_[T-1C]_H3.3_A3.1_F3.1_T3.2_[T9C]_[A10G] (ssRNA)
# RNA: B1 RNA with A28G, U29C, U30A, A31C, U32A, A33C, C39G
# B40: Id_ii_S2_P3E.3_K3.2_C3.2_H3.2_A3.1_F3.1_T3.2_[T9C]_[A10C] (ssRNA)
# RNA: B1 RNA with A28C
# B41: Id_ii_S2_P3E.4_K3.3_C3.2_[C-2T]_[T-1C]_H3.3_A3.1_F3.1_T3.2_[T9C]_[A10T] (ssRNA)
# RNA: B1 RNA with A28U, U29C, U30A, A31C, U32A, A33C, C39U
# B42: Id_ii_S2_P3E.3_K3.2_C3.2_[T-1G]_H3.2_A3.1_F3.1_T3.2 (ssRNA)
# RNA: B1 RNA with A28C, U29G, C38U, C39A
# B43: Id_ii_S2_P3E.3_K3.2_C3.2_[T-1C]_H3.2_A3.1_F3.1_T3.2_[T9A]_[A10C] (ssRNA)
# RNA: B1 RNA with A28C, U29C, C38A
# B44: Id_ii_S2_P3E.4_K3.3_C3.2_[C-2G]_H3.3_A3.1_F3.1_T3.2_[A10C] (ssRNA)
# RNA: B1 RNA with A28G, U30A, A31C, U32A, A33C, C38U
# B45: Id_ii_S2_P3E.4_K3.3_C3.2_[C-2G]_H3.3_A3.1_F3.1_T3.2_[T9A]_[A10C] (ssRNA)
# RNA: B1 RNA with A28G, U30A, A31C, U32A, A33C, C38A
# B46: Id_ii_S2_P3E.3_K3.2_C3.2_[T-1C]_H3.2_A3.1_F3.1_T3.2 (ssRNA)
# RNA: B1 RNA with A28C, U29C, C38U, C39A
# B47: Id_ii_S2_P3E.3_K3.2_C3.2_[T-1A]_H3.2_A3.1_F3.1_T3.2_[T9A]_[A10C] (ssRNA)
# RNA: B1 RNA with A28C, U29A, C38A
# B48: Id_ii_S2_P3E.3_K3.2_C3.2_[T-1A]_H3.2_A3.1_F3.1_T3.2_[A10C] (ssRNA)
# RNA: B1 RNA with A28C, U29A, C38U
# Biological target: T1, PUF4 RNA-binding domain
# Assay: Mg; RNA-MaP; 20 mM Na-HEPES pH 7.4, 30 mM KOAc, 0.75 mM MgCl2, 0.1% Tween-20, 5% glycerol, 0.1 mg/mL BSA, 2 mM DTT; 25 C; 0.0125-409.6 nM protein
# Details: tags: N-His6-TEV cleaved; C-SNAP kept, Cy3B-labelled; label: tethered on chip by stalled RNA polymerase
row,Binder,Kd [nM]
1,UCUCUUUAUAUUAUCAUCUCUU (ssRNA) [Ib_S1_P5E.1_K5.1_C5.1_H5.1_[G2A]_A5.1_F5.1_[T9C]_T5.1],641
2,UCUCUUUAUAUUAUAAUCUCUU (ssRNA) [Ib_S1_P5E.1_K5.1_C5.1_H5.1_[G2A]_A5.1_F5.1_[T9A]_T5.1],124
3,UCUCUUUGCAUUAUCAUCUCUU (ssRNA) [Ib_S1_P5E.1_K5.1_C5.1_H5.1_[T3C]_A5.1_F5.1_[T9C]_T5.1],> 2300
4,UCUCUUUGCAUUAUAAUCUCUU (ssRNA) [Ib_S1_P5E.1_K5.1_C5.1_H5.1_[T3C]_A5.1_F5.1_[T9A]_T5.1],1400
5,B1,322
6,B2,251
7,B3,693
8,B4,447
9,B5,245
10,B6,0.551
11,B7,0.478
12,B8,31.9
13,B9,1090
14,B10,177
15,B11,531
16,B12,83.8
17,B13,1.98
18,B14,718
19,B15,573
20,B16,108
21,B17,739
22,B18,190
23,B19,83.2
24,B20,54.4
25,B21,401
26,B22,1970
27,B23,0.875

row,Binder,Kd [nM]
1,B24,78
2,B25,214
3,B26,72.5
4,B27,93.1
5,B28,112
6,B29,292
7,B30,108
8,B31,84.9
9,B32,198
10,B33,> 2300
11,B34,38.5
12,B35,121
13,B36,120
14,B37,863
15,B38,417
16,B39,817
17,B40,115
18,B41,1260
19,B42,160
20,B43,122
21,B44,0.486
22,B45,0.742
23,B46,42.2
24,B47,218
25,B48,227
26,UCUCUUAGUAUUAUAAUCUCUU (ssRNA) [Ib_S1_P5E.1_K5.1_C5.1_H5.1_[T1A]_A5.1_F5.1_[T9A]_T5.1],614
